# Assay results published in article PMC8487046, “Insights into the ligand binding specificity of SREC‐II (scavenger receptor expressed by endothelial cells)” (FEBS Open Bio, 2021).
# B1: SREC‐II(44‐442), extracellular domain of scavenger receptor expressed by endothelial cells II (domain or fragment)
# chain: QELNPRGRNVCRAPGSQVPTCCAGWRQQGDECGIAVCEGNSTCSENEVCVRPGECRCRHGYFGANCDTKCPRQFWGPDCKELCSCHPHGQCEDVTGQCTCHARRWGARCEHACQCQHGTCHPRSGACRCEPGWWGAQCASACYCSATSRCDPQTGACLCHAGWWGRSCNNQCACNSSPCEQQSGRCQCRERTFGARCDRYCQCFRGRCHPVDGTCACEPGYRGKYCREPCPAGFYGLGCRRRCGQCKGQQPCTVAEGRCLTCEPGWNGTKCDQPCATGFYGEGCSHRCPPCRDGHACNHVTGKCTRCNAGWIGDRCETKCSNGTYGEDCAFVCADCGSGHCDFQSGRCLCSPGVHGPHCNVTCPPGLHGADCAQACSCHEDTCDPVTGACHLETNQRKGLIK
# modifications: N‐terminal glutamine 44 converted to pyroglutamate; N‐glycosylated (extra mass of 11.3 kDa)
# notes: SREC-II (encoded by SCARF2), extracellular moiety; 3 amino acids (Leu-Ile-Lys) between Gly442 and the 8 His residues; also called SREC‐II ectodomain; soluble SREC‐II; not shown: His8, C-terminal, kept
# Tests used:
# [1] = molecular target: B1; test: SPR; SREC-II(44-442) immobilized (1973 RU, CM5, amine coupling), CRT injected at five increasing concentrations in single cycle kinetics mode; TBS-Ca-P; 30 µL/min; 25 °C; global fit, two-state reaction model; apparent KD; conditions: both partners purified
# [2] = molecular target: T1, complement C1q, purified human (human, UniProt P02745 23-245; P02746 28-253; P02747 29-245); test: SPR; C1q immobilized (18 700 RU, CM5, amine coupling; BSA as reference surface), serially diluted SREC-II(44-442) injected; TBS-Ca-P; 20 µL/min; 25 °C; global fit, 1:1 Langmuir model; apparent KD; conditions: both partners purified
# T1 construct: MW used: 459 300 g/mol; source: purified human C1q, prepared as described previously [8]; copies: + +
# T1 sequence (P02745 23-245, chain 1 of 3): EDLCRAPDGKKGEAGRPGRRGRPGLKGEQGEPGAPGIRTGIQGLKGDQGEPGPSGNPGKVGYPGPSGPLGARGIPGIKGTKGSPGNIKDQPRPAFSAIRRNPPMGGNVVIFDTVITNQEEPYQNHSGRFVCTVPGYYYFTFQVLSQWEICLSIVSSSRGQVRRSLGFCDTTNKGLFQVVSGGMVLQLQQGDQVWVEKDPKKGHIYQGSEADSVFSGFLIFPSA
# T1 sequence (P02746 28-253, chain 2 of 3): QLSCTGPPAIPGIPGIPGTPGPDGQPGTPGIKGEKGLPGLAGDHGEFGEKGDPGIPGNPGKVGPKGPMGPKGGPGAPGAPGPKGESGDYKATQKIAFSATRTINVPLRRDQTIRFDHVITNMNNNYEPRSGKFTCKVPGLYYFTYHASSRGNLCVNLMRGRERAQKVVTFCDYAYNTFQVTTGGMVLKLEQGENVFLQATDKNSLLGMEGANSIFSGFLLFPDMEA
# T1 sequence (P02747 29-245, chain 3 of 3): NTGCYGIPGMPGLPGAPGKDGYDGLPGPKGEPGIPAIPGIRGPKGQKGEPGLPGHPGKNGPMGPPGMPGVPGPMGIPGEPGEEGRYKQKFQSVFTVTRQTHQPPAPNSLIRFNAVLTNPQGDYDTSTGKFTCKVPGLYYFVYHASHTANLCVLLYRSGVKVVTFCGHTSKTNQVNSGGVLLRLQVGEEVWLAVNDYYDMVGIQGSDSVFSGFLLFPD
Binder,Kd [1],Kd [2],koff [2],kon [2]
"recombinant human calreticulin (CRT) (natural protein, UniProt P27797 18-417, looked up, calreticulin, human; source: recombinant, produced according to published procedures [6, 9]) EPAVYFKEQFLDGDGWTSRWIESKHKSDFGKFVLSSGKFYGDEEKDKGLQTSQDARFYALSASFEPFSNKGQTLVVQFTVKHEQNIDCGGGYVKLFPNSLDQTDMHGDSEYNIMFGPDICGPGTKKVHVIFNYKGKNVLINKDIRCKDDEFTHLYTLIVRPDNTYEVKIDNSQVESGSLEDDWDFLPPKKIKDPDASKPEDWDERAKIDDPTDSKPEDWDKPEHIPDPDAKKPEDWDEEMDGEWEPPVIQNPEYKGEWKPRQIDNPDYKGTWIHPEIDNPEYSPDPSIYAYDNFGVLGLDLWQVKSGTIFDNFLITNDEAYAEEFGNETWGVTKAAEKQMKDKQDEEQRLKEEEEDKKRKEEEEAEDKEDDEDKDEDEEDEEDKEEDEEEDVPGQAKDEL",290 nM,–,–,–
B1,–,45 nM,0.001 s⁻¹,20000 M⁻¹ s⁻¹
